Laboratory results from patent publication US20100260668A1 (published 2010).

Columns and labels:
[1] = biological target: VEGF (VEGF 1-165 aa, R&D Systems 293-VE-010) (UniProt P15692 27-191); assay: Direct bind ELISA, VEGF coated on plate;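 also: ELISA screening of antibodies for binding to the plate-coated target antigen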
HGF-His tag = biological target: T1, HGF-His tag (UniProt P14210 32-728); assay: direct bind ELISA (C-term VD)
T1 construct: Bought antigen coated on the ELISA plate; not shown: His tag
T1 sequence (P14210 32-728 limits assumed): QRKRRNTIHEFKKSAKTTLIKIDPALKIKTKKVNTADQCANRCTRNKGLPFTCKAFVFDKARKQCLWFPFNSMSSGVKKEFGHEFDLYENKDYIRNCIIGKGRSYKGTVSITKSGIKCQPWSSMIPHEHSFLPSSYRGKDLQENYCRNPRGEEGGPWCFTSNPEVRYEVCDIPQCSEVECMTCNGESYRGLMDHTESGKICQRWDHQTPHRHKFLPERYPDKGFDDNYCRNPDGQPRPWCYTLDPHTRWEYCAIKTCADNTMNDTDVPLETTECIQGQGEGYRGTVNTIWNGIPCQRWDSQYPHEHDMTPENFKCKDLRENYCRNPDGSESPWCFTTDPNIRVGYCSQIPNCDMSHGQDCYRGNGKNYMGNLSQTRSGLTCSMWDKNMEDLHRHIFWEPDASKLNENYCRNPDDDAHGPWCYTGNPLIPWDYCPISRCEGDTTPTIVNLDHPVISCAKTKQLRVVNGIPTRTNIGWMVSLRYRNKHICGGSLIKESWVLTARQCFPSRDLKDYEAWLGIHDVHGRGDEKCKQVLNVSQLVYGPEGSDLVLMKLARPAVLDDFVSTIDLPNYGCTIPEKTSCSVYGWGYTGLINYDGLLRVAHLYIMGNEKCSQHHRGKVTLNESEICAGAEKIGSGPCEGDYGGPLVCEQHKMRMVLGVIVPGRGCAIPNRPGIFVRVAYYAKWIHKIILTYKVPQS

VEGF 1-165 aa = biological target: T2, VEGF 1-165 aa (UniProt P15692 27-191); assay: direct bind ELISA (N-term VD);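 also: ELISA screen of antibodies for binding to plate-immobilized target antigen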
T2 construct: Bought antigen coated on the ELISA plate
T2 sequence (P15692 other isoform, or with tags, fused parts or gaps limits assumed): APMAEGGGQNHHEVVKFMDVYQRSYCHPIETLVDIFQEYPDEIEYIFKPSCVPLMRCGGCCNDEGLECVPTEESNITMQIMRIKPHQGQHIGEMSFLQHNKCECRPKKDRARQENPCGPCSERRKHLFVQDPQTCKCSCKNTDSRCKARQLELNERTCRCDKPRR

Sequence of VEGF (VEGF 1-165 aa, R&D Systems 293-VE-010) (P15692 other isoform, or with tags, fused parts or gaps limits assumed): as above

Row | Binder | EC50 [1] [nM] | EC50 (HGF-His tag) [nM] | EC50 (VEGF 1-165 aa) [nM]
1 | DVD521 (bispecific antibody, IgG1, DVD-Ig, outer AB073 / inner AB071; HC linker long, LC linker long; also called DVD521H; DVD521L) VH: EVQLQQSGPELEKPGASVKISCKASGYSFTGYNMNWVKQSNGKSLEWIGNIDPYFGGTNYNQKFKGKATLTVDKSSSTAYMQLKSLTSEDSAVYYCARNYDYDGGCFDYWGQGTTLTVSSASTKGPSVFPLAPEVQLVESGGGLVQPGGSLRLSCAASGFTINASWIHWVRQAPGKGLEWVGAIYPYSGYTNYADSVKGRFTISADTSKNTAYLQMNSLRAEDTAVYYCARWGHSTSPWAMDYWGQGTLVTVSS VL: QAVVTQESALTTSPGETVTLTCRSSTGAVTTSNYANWVQEKPDHLFTGLIGGTNNRAPGVPARFSGSLIGDKAALTITGAQTEDEAIYFCALWYSNHWVFGGGTKLTVLGQPKAAPSVTLFPPDIQMTQSPSSLSASVGDRVTITCRASQVIRRSLAWYQQKPGKAPKLLIYAASNLASGVPSRFSGSGSGTDFTLTISSLQPEDFATYYCQQSNTSPLTFGQGTKVEIKR | 655 | – | –
2 | DVD646 (bispecific antibody, human IgG1, kappa, DVD-Ig; N-term VD AB071 (VEGF), C-term VD AB012 (HGF); HC linker long, LC linker long; vectors V1/V2) heavy: not shown light: DIQMTQSPSSLSASVGDRVTITCRASQVIRRSLAWYQQKPGKAPKLLIYAASNLASGVPSRFSGSGSGTDFTLTISSLQPEDFATYYCQQSNTSPLTFGQGTKVEIKRTVAAPSVFIFPPDIQMTQSPSSVSASVGDRVTITCRASQGISSWLAWYQQKPGKAPNLLIYEASSLQSGVPSRFGGSGSGTDFTLTISSLQPEDFATYYCQQANGFPWTFGQGTKVEIKRTVAAPSVFIFPPSDEQLKSGTASVVCLLNNFYPREAKVQWKVDNALQSGNSQESVTEQDSKDSTYSLSSTLTLSKADYEKHKVYACEVTHQGLSSPVTKSFNRGEC | – | 0.49 | 30.7
3 | DVD650 (bispecific antibody, human IgG1, kappa, DVD-Ig; HC linker long, LC linker short; vectors V1/V2) heavy: not shown light: DIQMTQSPSSLSASVGDRVTITCRASQDVSTAVAWYQQKPGKAPKLLIYSASFLYSGVPSRFSGSGSGTDFTLTISSLQPEDFATYYCQQSYTTPPTFGQGTKVEIKRTVAAPDIQMTQSPSSVSASVGDRVTITCRASQGISSWLAWYQQKPGKAPNLLIYEASSLQSGVPSRFGGSGSGTDFTLTISSLQPEDFATYYCQQANGFPWTFGQGTKVEIKRTVAAPSVFIFPPSDEQLKSGTASVVCLLNNFYPREAKVQWKVDNALQSGNSQESVTEQDSKDSTYSLSSTLTLSKADYEKHKVYACEVTHQGLSSPVTKSFNRGEC | – | 4.63 | 2.67
4 | DVD648 (bispecific antibody, human IgG1, kappa, DVD-Ig; HC linker long, LC linker short; vectors V1/V2) heavy: not shown light: DIQMTQSPSSLSASVGDRVTITCSASQDISNYLNWYQQKPGKAPKVLIYFTSSLHSGVPSRFSGSGSGTDFTLTISSLQPEDFATYYCQQYSTVPWTFGQGTKVEIKRTVAAPDIQMTQSPSSVSASVGDRVTITCRASQGISSWLAWYQQKPGKAPNLLIYEASSLQSGVPSRFGGSGSGTDFTLTISSLQPEDFATYYCQQANGFPWTFGQGTKVEIKRTVAAPSVFIFPPSDEQLKSGTASVVCLLNNFYPREAKVQWKVDNALQSGNSQESVTEQDSKDSTYSLSSTLTLSKADYEKHKVYACEVTHQGLSSPVTKSFNRGEC | – | 4.17 | 1.72
5 | DVD522 (bispecific antibody, IgG1, DVD-Ig, outer AB071 / inner AB073; HC linker long, LC linker long; also called DVD522H; DVD522L) VH: EVQLVESGGGLVQPGGSLRLSCAASGFTINASWIHWVRQAPGKGLEWVGAIYPYSGYTNYADSVKGRFTISADTSKNTAYLQMNSLRAEDTAVYYCARWGHSTSPWAMDYWGQGTLVTVSSASTKGPSVFPLAPEVQLQQSGPELEKPGASVKISCKASGYSFTGYNMNWVKQSNGKSLEWIGNIDPYFGGTNYNQKFKGKATLTVDKSSSTAYMQLKSLTSEDSAVYYCARNYDYDGGCFDYWGQGTTLTVSS VL: DIQMTQSPSSLSASVGDRVTITCRASQVIRRSLAWYQQKPGKAPKLLIYAASNLASGVPSRFSGSGSGTDFTLTISSLQPEDFATYYCQQSNTSPLTFGQGTKVEIKRTVAAPSVFIFPPQAVVTQESALTTSPGETVTLTCRSSTGAVTTSNYANWVQEKPDHLFTGLIGGTNNRAPGVPARFSGSLIGDKAALTITGAQTEDEAIYFCALWYSNHWVFGGGTKLTVLG | 23.5 | – | –
6 | DVD515 (bispecific antibody, IgG1, DVD-Ig, outer AB073 / inner AB071; HC linker short, LC linker short; also called DVD515H; DVD515L) VH: EVQLQQSGPELEKPGASVKISCKASGYSFTGYNMNWVKQSNGKSLEWIGNIDPYFGGTNYNQKFKGKATLTVDKSSSTAYMQLKSLTSEDSAVYYCARNYDYDGGCFDYWGQGTTLTVSSASTKGPEVQLVESGGGLVQPGGSLRLSCAASGFTINASWIHWVRQAPGKGLEWVGAIYPYSGYTNYADSVKGRFTISADTSKNTAYLQMNSLRAEDTAVYYCARWGHSTSPWAMDYWGQGTLVTVSS VL: QAVVTQESALTTSPGETVTLTCRSSTGAVTTSNYANWVQEKPDHLFTGLIGGTNNRAPGVPARFSGSLIGDKAALTITGAQTEDEAIYFCALWYSNHWVFGGGTKLTVLGQPKAAPDIQMTQSPSSLSASVGDRVTITCRASQVIRRSLAWYQQKPGKAPKLLIYAASNLASGVPSRFSGSGSGTDFTLTISSLQPEDFATYYCQQSNTSPLTFGQGTKVEIKR | 3020 | – | –
7 | DVD527 (bispecific antibody, IgG1, DVD-Ig, outer AB073 / inner AB071; HC linker long, LC linker short; also called DVD527H; DVD527L) VH: EVQLQQSGPELEKPGASVKISCKASGYSFTGYNMNWVKQSNGKSLEWIGNIDPYFGGTNYNQKFKGKATLTVDKSSSTAYMQLKSLTSEDSAVYYCARNYDYDGGCFDYWGQGTTLTVSSASTKGPSVFPLAPEVQLVESGGGLVQPGGSLRLSCAASGFTINASWIHWVRQAPGKGLEWVGAIYPYSGYTNYADSVKGRFTISADTSKNTAYLQMNSLRAEDTAVYYCARWGHSTSPWAMDYWGQGTLVTVSS VL: QAVVTQESALTTSPGETVTLTCRSSTGAVTTSNYANWVQEKPDHLFTGLIGGTNNRAPGVPARFSGSLIGDKAALTITGAQTEDEAIYFCALWYSNHWVFGGGTKLTVLGQPKAAPDIQMTQSPSSLSASVGDRVTITCRASQVIRRSLAWYQQKPGKAPKLLIYAASNLASGVPSRFSGSGSGTDFTLTISSLQPEDFATYYCQQSNTSPLTFGQGTKVEIKR | 2380 | – | –
8 | DVD516 (bispecific antibody, IgG1, DVD-Ig, outer AB071 / inner AB073; HC linker short, LC linker short; also called DVD516H; DVD516L) VH: EVQLVESGGGLVQPGGSLRLSCAASGFTINASWIHWVRQAPGKGLEWVGAIYPYSGYTNYADSVKGRFTISADTSKNTAYLQMNSLRAEDTAVYYCARWGHSTSPWAMDYWGQGTLVTVSSASTKGPEVQLQQSGPELEKPGASVKISCKASGYSFTGYNMNWVKQSNGKSLEWIGNIDPYFGGTNYNQKFKGKATLTVDKSSSTAYMQLKSLTSEDSAVYYCARNYDYDGGCFDYWGQGTTLTVSS VL: DIQMTQSPSSLSASVGDRVTITCRASQVIRRSLAWYQQKPGKAPKLLIYAASNLASGVPSRFSGSGSGTDFTLTISSLQPEDFATYYCQQSNTSPLTFGQGTKVEIKRTVAAPQAVVTQESALTTSPGETVTLTCRSSTGAVTTSNYANWVQEKPDHLFTGLIGGTNNRAPGVPARFSGSLIGDKAALTITGAQTEDEAIYFCALWYSNHWVFGGGTKLTVLG | 24.6 | – | –
9 | DVD528 (bispecific antibody, IgG1, DVD-Ig, outer AB071 / inner AB073; HC linker long, LC linker short; also called DVD528H; DVD528L) VH: EVQLVESGGGLVQPGGSLRLSCAASGFTINASWIHWVRQAPGKGLEWVGAIYPYSGYTNYADSVKGRFTISADTSKNTAYLQMNSLRAEDTAVYYCARWGHSTSPWAMDYWGQGTLVTVSSASTKGPSVFPLAPEVQLQQSGPELEKPGASVKISCKASGYSFTGYNMNWVKQSNGKSLEWIGNIDPYFGGTNYNQKFKGKATLTVDKSSSTAYMQLKSLTSEDSAVYYCARNYDYDGGCFDYWGQGTTLTVSS VL: DIQMTQSPSSLSASVGDRVTITCRASQVIRRSLAWYQQKPGKAPKLLIYAASNLASGVPSRFSGSGSGTDFTLTISSLQPEDFATYYCQQSNTSPLTFGQGTKVEIKRTVAAPQAVVTQESALTTSPGETVTLTCRSSTGAVTTSNYANWVQEKPDHLFTGLIGGTNNRAPGVPARFSGSLIGDKAALTITGAQTEDEAIYFCALWYSNHWVFGGGTKLTVLG | 27.7 | – | –
10 | DVD534 (bispecific antibody, IgG1, DVD-Ig, outer AB071 / inner AB073; HC linker short, LC linker long; also called DVD534H; DVD534L) VH: EVQLVESGGGLVQPGGSLRLSCAASGFTINASWIHWVRQAPGKGLEWVGAIYPYSGYTNYADSVKGRFTISADTSKNTAYLQMNSLRAEDTAVYYCARWGHSTSPWAMDYWGQGTLVTVSSASTKGPEVQLQQSGPELEKPGASVKISCKASGYSFTGYNMNWVKQSNGKSLEWIGNIDPYFGGTNYNQKFKGKATLTVDKSSSTAYMQLKSLTSEDSAVYYCARNYDYDGGCFDYWGQGTTLTVSS VL: DIQMTQSPSSLSASVGDRVTITCRASQVIRRSLAWYQQKPGKAPKLLIYAASNLASGVPSRFSGSGSGTDFTLTISSLQPEDFATYYCQQSNTSPLTFGQGTKVEIKRTVAAPSVFIFPPQAVVTQESALTTSPGETVTLTCRSSTGAVTTSNYANWVQEKPDHLFTGLIGGTNNRAPGVPARFSGSLIGDKAALTITGAQTEDEAIYFCALWYSNHWVFGGGTKLTVLG | 23.6 | – | –
11 | DVD652 (bispecific antibody, human IgG1, kappa, DVD-Ig; N-term VD AB071 (VEGF), C-term VD AB012 (HGF); HC linker long, LC linker short; vectors V1/V2) heavy: not shown light: DIQMTQSPSSLSASVGDRVTITCRASQVIRRSLAWYQQKPGKAPKLLIYAASNLASGVPSRFSGSGSGTDFTLTISSLQPEDFATYYCQQSNTSPLTFGQGTKVEIKRTVAAPDIQMTQSPSSVSASVGDRVTITCRASQGISSWLAWYQQKPGKAPNLLIYEASSLQSGVPSRFGGSGSGTDFTLTISSLQPEDFATYYCQQANGFPWTFGQGTKVEIKRTVAAPSVFIFPPSDEQLKSGTASVVCLLNNFYPREAKVQWKVDNALQSGNSQESVTEQDSKDSTYSLSSTLTLSKADYEKHKVYACEVTHQGLSSPVTKSFNRGEC | – | 4.71 | 13.8
12 | DVD642 (bispecific antibody, human IgG1, kappa, DVD-Ig; HC linker long, LC linker long; vectors V1/V2) heavy: not shown light: DIQMTQSPSSLSASVGDRVTITCSASQDISNYLNWYQQKPGKAPKVLIYFTSSLHSGVPSRFSGSGSGTDFTLTISSLQPEDFATYYCQQYSTVPWTFGQGTKVEIKRTVAAPSVFIFPPDIQMTQSPSSVSASVGDRVTITCRASQGISSWLAWYQQKPGKAPNLLIYEASSLQSGVPSRFGGSGSGTDFTLTISSLQPEDFATYYCQQANGFPWTFGQGTKVEIKRTVAAPSVFIFPPSDEQLKSGTASVVCLLNNFYPREAKVQWKVDNALQSGNSQESVTEQDSKDSTYSLSSTLTLSKADYEKHKVYACEVTHQGLSSPVTKSFNRGEC | – | 0.87 | 6.35
13 | DVD644 (bispecific antibody, human IgG1, kappa, DVD-Ig; HC linker long, LC linker long; vectors V1/V2) heavy: not shown light: DIQMTQSPSSLSASVGDRVTITCRASQDVSTAVAWYQQKPGKAPKLLIYSASFLYSGVPSRFSGSGSGTDFTLTISSLQPEDFATYYCQQSYTTPPTFGQGTKVEIKRTVAAPSVFIFPPDIQMTQSPSSVSASVGDRVTITCRASQGISSWLAWYQQKPGKAPNLLIYEASSLQSGVPSRFGGSGSGTDFTLTISSLQPEDFATYYCQQANGFPWTFGQGTKVEIKRTVAAPSVFIFPPSDEQLKSGTASVVCLLNNFYPREAKVQWKVDNALQSGNSQESVTEQDSKDSTYSLSSTLTLSKADYEKHKVYACEVTHQGLSSPVTKSFNRGEC | – | 0.29 | 5.31
